# In patent US20220023399A1 (CONTRAFECT, published 2022):
# Target: T1, human serum albumin (human, UniProt P02768 25-609)
# T1 construct: also called HSA; rHSA
# Test: confocal/deconvolution microscopy; S. aureus ATCC 700699 pretreated with HSA 40 mg/mL, CF-301^RHD at 0.25×MIC
# T1 sequence (P02768 25-609): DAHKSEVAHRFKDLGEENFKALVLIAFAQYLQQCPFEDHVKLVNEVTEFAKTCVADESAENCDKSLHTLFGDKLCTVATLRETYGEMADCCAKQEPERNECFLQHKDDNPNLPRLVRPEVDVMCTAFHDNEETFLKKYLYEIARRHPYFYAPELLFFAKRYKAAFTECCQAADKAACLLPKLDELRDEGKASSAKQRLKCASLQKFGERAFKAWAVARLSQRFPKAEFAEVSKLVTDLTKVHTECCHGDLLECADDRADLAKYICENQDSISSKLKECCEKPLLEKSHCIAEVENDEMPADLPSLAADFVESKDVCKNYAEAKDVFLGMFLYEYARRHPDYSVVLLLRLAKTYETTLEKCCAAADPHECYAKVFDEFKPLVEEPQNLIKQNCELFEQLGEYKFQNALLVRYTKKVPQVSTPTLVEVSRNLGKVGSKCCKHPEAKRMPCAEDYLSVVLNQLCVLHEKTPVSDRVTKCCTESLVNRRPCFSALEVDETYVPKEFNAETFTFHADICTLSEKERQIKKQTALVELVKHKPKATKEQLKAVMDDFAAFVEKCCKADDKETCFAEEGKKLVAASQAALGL
binder,measurement,value
"rhodamine-labeled PlySs2 (CF-301) (enzyme, also called CF-301^RHD; CF-301^RHOD) MTTVNEALNNVRAQVGSGVSVGNGECYALASWYERMISPDATVGLGAGVGWVSGAIGDTISAKNIGSSYNWQANGWTVSTSGPFKAGQIVTLGATPGNPYGHVVIVEAVDGDRLTILEQNYGGKRYPVRNYYSAASYRQQVVHYITPPGTVAQSAPNLAGSRSYRETGTMTVTVDALNVRRAPNTSGEIVAVYKRGESFDYDTVIIDVNGYVWVSYIGGSGKRNYVATGATKDGKRFGNAWGTFK",binding result,binds
